In paper PMC12212125, “Constitutively active Arabidopsis cryptochrome two alleles identified using yeast selection and deep mutational scanning” (The Journal of Biological Chemistry, 2025):

B1: Arabidopsis thaliana cryptochrome 2 (CRY2, UniProt Q96524), residues 1-535 fused after the Gal4 DNA-binding domain (Gal4BD-CRY2(535)); mutagenized window 321-412, Q96524 (parent)
chain: MKMDKKTIVWFRRDLRIEDNPALAAAAHEGSVFPVFIWCPEEEGQFYPGRASRWWMKQSLAHLSQSLKALGSDLTLIKTHNTISAILDCIRVTGATKVVFNHLYDPVSLVRDHTVKEKLVERGISVQSYNGDLLYEPWEIYCEKGKPFTSFNSYWKKCLDMSIESVMLPPPWRLMPITAAAEAIWACSIEELGLENEAEKPSNALLTRAWSPGWSNADKLLNEFIEKQLIDYAKNSKKVVGNSTSLLSPYLHFGEISVRHVFQCARMKQIIWARDKNSEGEESADLFLRGIGLREYSRYICFNFPFTHEQSLLSHLRFFPWDADVDKFKAWRQGRTGYPLVDAGMRELWATGWMHNRIRVIVSSFAVKFLLLPWKWGMKYFWDTLLDADLECDILGWQYISGSIPDGHELDRLDNPALQGAKYDPEGEYIRQWLPELARLPTEWIHHPWDAPLTVLKASGVELGTNYAKPIVDIDTARELLAKAISRTREAQIMIGAAPDEIVADSFEALGANTIKEPGLCPSVSSNDQQVPSAV

Variants of: B1
Assay: yeast two-hybrid growth selection (MaV203; Gal4BD-CRY2(1-535) library x Gal4AD-CIB1; URA3 reporter on SC -Trp/-Leu/-Ura) in the dark, deep sequencing before and after selection, Enrich2 scoring; three independent screens (one at 48 h, two …)
Conditions: with CIB1 (CRYPTOCHROME-INTERACTING BASIC-HELIX-LOOP-HELIX 1), dark (no blue light), screens 1, 3 and 4, Svar > 0 = enriched under dark selection for CRY2-CIB1 two-hybrid growth (URA3 reporter), < 0 = depleted, relative to wild type (whose scores are 0). 'The Enrich2 software calculates, parent: 0, not an affinity, scale: Enrich2 score, numbering: uniprot, sequence starts at 1

Variant | enrichment
G337R | -0.665
G337V | -1.13
G337C | -1.19
G337S | -0.736
K327T | -0.117
K327N | -0.0863
K327E | -1.63
K327R | 0.118
K327M | -0.448
K327Q | 0.397
D324E | 0.371
D324A | 0.0228
D324V | 2.44
D324G | -0.17
D324Y | 0.863
D324N | -0.413
R335G | -1.19
R335T | 1.74
R335S | -0.537
R335K | 0.204
W321R | 0.946
W321G | -0.157
W321C | -0.0126

Variant | enrichment
W321L | -1.18
D322V | 0.286
D322Y | -0.959
D322N | 0.239
D322A | -0.241
D322E | 0.472
D322G | 0.357
Q333R | 1.48
Q333P | -1.44
Q333L | -0.0861
Q333K | -0.851
Q333H | 0.227
A330D | -0.577
A330G | -2.23
A330T | -0.56
A330S | -0.0962
A330P | -1.93
A330V | -1.26
V325A | -0.239
V325D | -1.89
V325F | -0.532
V325G | 0.408
V325I | -0.344

Variant | enrichment
G334A | -1.45
G334S | -0.925
G334C | 0.0705
G334V | -0.578
D326A | -0.893
D326V | -0.872
D326E | -1.28
D326G | 0.327
D326Y | -0.976
D326N | -0.256
P339L | -1.02
W331C | -0.871
W331L | 1
W331R | -1.72
W331G | -1.69
A323S | 0.117
A323D | 0.677
A323T | -0.65
A323V | -0.61
T336I | -1.58
T336S | 0.494
T336P | -0.907
T336A | -1.84

Variant | enrichment
T336N | -0.274
K329N | 0.546
K329E | -0.264
K329M | 0.675
K329T | 0.41
K329R | 0.366
F328I | -1.51
F328L | -0.872
F328S | -1.95
F328P | 0.453
F328V | -2.43
F328C | -1.53
F328Y | -0.296
R332I | -0.681
R332S | 0.5
R332K | -1.23
R332G | -0.0201
Y338S | -0.758
Y338D | -1.31
Y338N | -1.68
Y338F | -0.84
Y338H | -0.584
Y338C | -1.57

Variants of: B1
Assay: yeast two-hybrid, quantitative GalUAS-lacZ (beta-galactosidase) reporter assay
Conditions: with itself; dark; strain AH109; parent: 25; read off a plot

Variant | response [Miller units]
MKMDKKTIVWFRRDLRIEDNPALAAAAHEGSVFPVFIWCPEEEGQFYPGRASRWWMKQSLAHLSQSLKALGSDLTLIKTHNTISAILDCIRVTGATKVVFNHLYDPVSLVRDHTVKEKLVERGISVQSYNGDLLYEPWEIYCEKGKPFTSFNSYWKKCLDMSIESVMLPPPWRLMPITAAAEAIWACSIEELGLENEAEKPSNALLTRAWSPGWSNADKLLNEFIEKQLIDYAKNSKKVVGNSTSLLSPYLHFGEISVRHVFQCARMKQIIWARDKNSEGEESADLFLRGIGLREYSRYICFNFPFTHEQSLLSHLRFFPWDADVDKFKAWRQGRTGYPLVDAGMRELWATGWMHNRIRVIVSSFAVKFLLLPWKWGMKYFWDTLLDADLECAILGWQYISGSIPDGHELDRLDNPALQGAKYDPEGEYIRQWLPELARLPTEWIHHPWDAPLTVLKASGVELGTNYAKPIVDIDTARELLAKAISRTREAQIMIGAAPDEIVADSFEALGANTIKEPGLCPSVSSNDQQVPSAV [chain 1 D393A] | 160
MKMDKKTIVWFRRDLRIEDNPALAAAAHEGSVFPVFIWCPEEEGQFYPGRASRWWMKQSLAHLSQSLKALGSDLTLIKTHNTISAILDCIRVTGATKVVFNHLYDPVSLVRDHTVKEKLVERGISVQSYNGDLLYEPWEIYCEKGKPFTSFNSYWKKCLDMSIESVMLPPPWRLMPITAAAEAIWACSIEELGLENEAEKPSNALLTRAWSPGWSNADKLLNEFIEKQLIDYAKNSKKVVGNSTSLLSPYLHFGEISVRHVFQCARMKQIIWARDKNSEGEESADLFLRGIGLREYSRYICFNFPFTHEQSLLSHLRFFPWDADVDKFKAWRQGRTGYPLVDAGMRELWATGWMHNRIRVIVSSFAVKFLLLPWKWGMKYFWDTLLDADLECSILGWQYISGSIPDGHELDRLDNPALQGAKYDPEGEYIRQWLPELARLPTEWIHHPWDAPLTVLKASGVELGTNYAKPIVDIDTARELLAKAISRTREAQIMIGAAPDEIVADSFEALGANTIKEPGLCPSVSSNDQQVPSAV [chain 1 D393S] | 170
MKMDKKTIVWFRRDLRIEDNPALAAAAHEGSVFPVFIWCPEEEGQFYPGRASRWWMKQSLAHLSQSLKALGSDLTLIKTHNTISAILDCIRVTGATKVVFNHLYDPVSLVRDHTVKEKLVERGISVQSYNGDLLYEPWEIYCEKGKPFTSFNSYWKKCLDMSIESVMLPPPWRLMPITAAAEAIWACSIEELGLENEAEKPSNALLTRAWSPGWSNADKLLNEFIEKQLIDYAKNSKKVVGNSTSLLSPYLHFGEISVRHVFQCARMKQIIWARDKNSEGEESADLFLRGIGLREYSRYICFNFPFTHEQSLLSHLRFFPWDADVDKFKAWRQGRTGYPLVDAGMRELWATGWMHNRIRVIVSSFAVKFLLLPAKWGMKYFWDTLLDADLECDILGWQYISGSIPDGHELDRLDNPALQGAKYDPEGEYIRQWLPELARLPTEWIHHPWDAPLTVLKASGVELGTNYAKPIVDIDTARELLAKAISRTREAQIMIGAAPDEIVADSFEALGANTIKEPGLCPSVSSNDQQVPSAV [chain 1 W374A] | 170
MKMDKKTIVWFRRDLRIEDNPALAAAAHEGSVFPVFIWCPEEEGQFYPGRASRWWMKQSLAHLSQSLKALGSDLTLIKTHNTISAILDCIRVTGATKVVFNHLYDPVSLVRDHTVKEKLVERGISVQSYNGDLLYEPWEIYCEKGKPFTSFNSYWKKCLDMSIESVMLPPPWRLMPITAAAEAIWACSIEELGLENEAEKPSNALLTRAWSPGWSNADKLLNEFIEKQLIDYAKNSKKVVGNSTSLLSPYLHFGEISVRHVFQCARMKQIIWARDKNSEGEESADLFLRGIGLREYSRYICFNFPFTHEQSLLSHLRFFPWDADVDKFKAWRQGRTGYPLVDAGMRELWATGWMHNRIRVIVSSFAVKFLLLPWKWGRKYFWDTLLDADLECDILGWQYISGSIPDGHELDRLDNPALQGAKYDPEGEYIRQWLPELARLPTEWIHHPWDAPLTVLKASGVELGTNYAKPIVDIDTARELLAKAISRTREAQIMIGAAPDEIVADSFEALGANTIKEPGLCPSVSSNDQQVPSAV [chain 1 M378R] | 210

Same assay, conditions: with itself; light; strain AH109; parent: 220; read off a plot

Variant | response [Miller units]
MKMDKKTIVWFRRDLRIEDNPALAAAAHEGSVFPVFIWCPEEEGQFYPGRASRWWMKQSLAHLSQSLKALGSDLTLIKTHNTISAILDCIRVTGATKVVFNHLYDPVSLVRDHTVKEKLVERGISVQSYNGDLLYEPWEIYCEKGKPFTSFNSYWKKCLDMSIESVMLPPPWRLMPITAAAEAIWACSIEELGLENEAEKPSNALLTRAWSPGWSNADKLLNEFIEKQLIDYAKNSKKVVGNSTSLLSPYLHFGEISVRHVFQCARMKQIIWARDKNSEGEESADLFLRGIGLREYSRYICFNFPFTHEQSLLSHLRFFPWDADVDKFKAWRQGRTGYPLVDAGMRELWATGWMHNRIRVIVSSFAVKFLLLPWKWGMKYFWDTLLDADLECAILGWQYISGSIPDGHELDRLDNPALQGAKYDPEGEYIRQWLPELARLPTEWIHHPWDAPLTVLKASGVELGTNYAKPIVDIDTARELLAKAISRTREAQIMIGAAPDEIVADSFEALGANTIKEPGLCPSVSSNDQQVPSAV [chain 1 D393A] | 180
MKMDKKTIVWFRRDLRIEDNPALAAAAHEGSVFPVFIWCPEEEGQFYPGRASRWWMKQSLAHLSQSLKALGSDLTLIKTHNTISAILDCIRVTGATKVVFNHLYDPVSLVRDHTVKEKLVERGISVQSYNGDLLYEPWEIYCEKGKPFTSFNSYWKKCLDMSIESVMLPPPWRLMPITAAAEAIWACSIEELGLENEAEKPSNALLTRAWSPGWSNADKLLNEFIEKQLIDYAKNSKKVVGNSTSLLSPYLHFGEISVRHVFQCARMKQIIWARDKNSEGEESADLFLRGIGLREYSRYICFNFPFTHEQSLLSHLRFFPWDADVDKFKAWRQGRTGYPLVDAGMRELWATGWMHNRIRVIVSSFAVKFLLLPWKWGMKYFWDTLLDADLECSILGWQYISGSIPDGHELDRLDNPALQGAKYDPEGEYIRQWLPELARLPTEWIHHPWDAPLTVLKASGVELGTNYAKPIVDIDTARELLAKAISRTREAQIMIGAAPDEIVADSFEALGANTIKEPGLCPSVSSNDQQVPSAV [chain 1 D393S] | 160
MKMDKKTIVWFRRDLRIEDNPALAAAAHEGSVFPVFIWCPEEEGQFYPGRASRWWMKQSLAHLSQSLKALGSDLTLIKTHNTISAILDCIRVTGATKVVFNHLYDPVSLVRDHTVKEKLVERGISVQSYNGDLLYEPWEIYCEKGKPFTSFNSYWKKCLDMSIESVMLPPPWRLMPITAAAEAIWACSIEELGLENEAEKPSNALLTRAWSPGWSNADKLLNEFIEKQLIDYAKNSKKVVGNSTSLLSPYLHFGEISVRHVFQCARMKQIIWARDKNSEGEESADLFLRGIGLREYSRYICFNFPFTHEQSLLSHLRFFPWDADVDKFKAWRQGRTGYPLVDAGMRELWATGWMHNRIRVIVSSFAVKFLLLPAKWGMKYFWDTLLDADLECDILGWQYISGSIPDGHELDRLDNPALQGAKYDPEGEYIRQWLPELARLPTEWIHHPWDAPLTVLKASGVELGTNYAKPIVDIDTARELLAKAISRTREAQIMIGAAPDEIVADSFEALGANTIKEPGLCPSVSSNDQQVPSAV [chain 1 W374A] | 180
MKMDKKTIVWFRRDLRIEDNPALAAAAHEGSVFPVFIWCPEEEGQFYPGRASRWWMKQSLAHLSQSLKALGSDLTLIKTHNTISAILDCIRVTGATKVVFNHLYDPVSLVRDHTVKEKLVERGISVQSYNGDLLYEPWEIYCEKGKPFTSFNSYWKKCLDMSIESVMLPPPWRLMPITAAAEAIWACSIEELGLENEAEKPSNALLTRAWSPGWSNADKLLNEFIEKQLIDYAKNSKKVVGNSTSLLSPYLHFGEISVRHVFQCARMKQIIWARDKNSEGEESADLFLRGIGLREYSRYICFNFPFTHEQSLLSHLRFFPWDADVDKFKAWRQGRTGYPLVDAGMRELWATGWMHNRIRVIVSSFAVKFLLLPWKWGRKYFWDTLLDADLECDILGWQYISGSIPDGHELDRLDNPALQGAKYDPEGEYIRQWLPELARLPTEWIHHPWDAPLTVLKASGVELGTNYAKPIVDIDTARELLAKAISRTREAQIMIGAAPDEIVADSFEALGANTIKEPGLCPSVSSNDQQVPSAV [chain 1 M378R] | 240
